From patent US20140087995A1 (published 2014)
Numbered stars: 1 amine (or outer) side, 2 acyl side, 3 side chain; on linkers, the order of the positions; unused ones are H or OH. Bridge positions count the residues as written; N and C are the ends. Side chains are listed from the residue outwards. Ends that are not written are not given here. * marks the point of attachment. C20 diacid = O=C(O)CCCCCCCCCCCCCCCCCCC(=O)*; γGlu = O=C(O)[C@H](CCC(=O)[*:2])N[*:1]

T1: human calcitonin receptor (human, UniProt P30988 25-474)
T1 construct: whole, on cells; also called hCTR; hCT
T1 sequence (looked up): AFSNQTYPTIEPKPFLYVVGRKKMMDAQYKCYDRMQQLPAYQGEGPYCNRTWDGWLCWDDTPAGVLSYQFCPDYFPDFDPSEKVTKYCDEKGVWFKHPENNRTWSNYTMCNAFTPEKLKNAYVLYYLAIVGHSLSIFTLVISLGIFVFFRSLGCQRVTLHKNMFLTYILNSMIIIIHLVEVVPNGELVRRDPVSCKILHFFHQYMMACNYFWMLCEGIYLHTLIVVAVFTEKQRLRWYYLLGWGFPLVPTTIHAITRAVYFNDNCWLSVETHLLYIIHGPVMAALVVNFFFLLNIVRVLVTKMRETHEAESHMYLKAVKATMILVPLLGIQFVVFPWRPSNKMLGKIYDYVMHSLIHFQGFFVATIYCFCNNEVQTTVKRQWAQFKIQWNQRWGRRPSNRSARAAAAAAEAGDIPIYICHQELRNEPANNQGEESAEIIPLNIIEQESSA


Molecular target: T1, human calcitonin receptor
Experiment: SPA competition with 125I-calcitonin, membranes of BHK hCTR cells (Assay VII)
How it was run: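 BHK hCTR membranes 35 ng/μL + SPA beads 0.05 mg/well; buffer 50 mM Hepes pH 7.4, 1 mM CaCl2, 5 mM MgCl₂, 0.1% OA, 0.02% Tween20. 120 min, 25° C., shaking. Scintillation count; IC50 by one-site binding competition.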

Row | IC50 [nM] | Binder
1 | 130 | K([γGlu-C20 diacid])CNTATCATQRLARFLRHSSPNFGAIPSSTPVGSNTY-NH2 (disulfide 2-7; N-terminus assumed; SMILES CC[C@H](C)[C@H](NC(=O)[C@H](C)NC(=O)CNC(=O)[C@H](Cc1ccccc1)NC(=O)[C@H](CC(N)=O)NC(=O)[C@@H]1CCCN1C(=O)[C@H](CO)NC(=O)[C@H](CO)NC(=O)[C@H](Cc1c[nH]cn1)NC(=O)[C@H](CCCNC(=N)N)NC(=O)[C@H](CC(C)C)NC(=O)[C@H](Cc1ccccc1)NC(=O)[C@H](CCCNC(=N)N)NC(=O)[C@H](C)NC(=O)[C@H](CC(C)C)NC(=O)[C@H](CCCNC(=N)N)NC(=O)[C@H](CCC(N)=O)NC(=O)[C@@H](NC(=O)[C@H](C)NC(=O)[C@@H]1CSSC[C@H](NC(=O)[C@@H](N)CCCCNC(=O)CC[C@H](NC(=O)CCCCCCCCCCCCCCCCCCC(=O)O)C(=O)O)C(=O)N[C@@H](CC(N)=O)C(=O)N[C@@H]([C@@H](C)O)C(=O)N[C@@H](C)C(=O)N[C@@H]([C@@H](C)O)C(=O)N1)[C@@H](C)O)C(=O)N1CCC[C@H]1C(=O)N[C@@H](CO)C(=O)N[C@@H](CO)C(=O)N[C@H](C(=O)N1CCC[C@H]1C(=O)N[C@H](C(=O)NCC(=O)N[C@@H](CO)C(=O)N[C@@H](CC(N)=O)C(=O)N[C@H](C(=O)N[C@@H](Cc1ccc(O)cc1)C(N)=O)[C@@H](C)O)C(C)C)[C@@H](C)O, also called compound 63)
2 | 53.5 | K([γGlu-C20 diacid])CNTATCATQRLARFLRHSSPNFGAIPSSTNVGPNTY-NH2 (disulfide 2-7; N-terminus assumed; SMILES CC[C@H](C)[C@H](NC(=O)[C@H](C)NC(=O)CNC(=O)[C@H](Cc1ccccc1)NC(=O)[C@H](CC(N)=O)NC(=O)[C@@H]1CCCN1C(=O)[C@H](CO)NC(=O)[C@H](CO)NC(=O)[C@H](Cc1c[nH]cn1)NC(=O)[C@H](CCCNC(=N)N)NC(=O)[C@H](CC(C)C)NC(=O)[C@H](Cc1ccccc1)NC(=O)[C@H](CCCNC(=N)N)NC(=O)[C@H](C)NC(=O)[C@H](CC(C)C)NC(=O)[C@H](CCCNC(=N)N)NC(=O)[C@H](CCC(N)=O)NC(=O)[C@@H](NC(=O)[C@H](C)NC(=O)[C@@H]1CSSC[C@H](NC(=O)[C@@H](N)CCCCNC(=O)CC[C@H](NC(=O)CCCCCCCCCCCCCCCCCCC(=O)O)C(=O)O)C(=O)N[C@@H](CC(N)=O)C(=O)N[C@@H]([C@@H](C)O)C(=O)N[C@@H](C)C(=O)N[C@@H]([C@@H](C)O)C(=O)N1)[C@@H](C)O)C(=O)N1CCC[C@H]1C(=O)N[C@@H](CO)C(=O)N[C@@H](CO)C(=O)N[C@H](C(=O)N[C@@H](CC(N)=O)C(=O)N[C@H](C(=O)NCC(=O)N1CCC[C@H]1C(=O)N[C@@H](CC(N)=O)C(=O)N[C@H](C(=O)N[C@@H](Cc1ccc(O)cc1)C(N)=O)[C@@H](C)O)C(C)C)[C@@H](C)O, also called compound 65)
